Legend:
[1] = target: human CD45 on the human T cell line PEER (human) (UniProt P08575); assay: FACS competition with FITC-conjugated mA6 on PEER cells; curve fit assuming divalent antibody binding
[2] = target: T1, cynomolgus monkey CD45 on the T cell line HSC-F (cynomolgus monkey, UniProt A0A2K5VQ76 26-1301); assay: FACS competition with FITC-conjugated mA6 on HSC-F cells; curve fit assuming divalent antibody binding
T1 construct: whole, on cells; also called cynomolgus HSC-F cell target
T1 sequence: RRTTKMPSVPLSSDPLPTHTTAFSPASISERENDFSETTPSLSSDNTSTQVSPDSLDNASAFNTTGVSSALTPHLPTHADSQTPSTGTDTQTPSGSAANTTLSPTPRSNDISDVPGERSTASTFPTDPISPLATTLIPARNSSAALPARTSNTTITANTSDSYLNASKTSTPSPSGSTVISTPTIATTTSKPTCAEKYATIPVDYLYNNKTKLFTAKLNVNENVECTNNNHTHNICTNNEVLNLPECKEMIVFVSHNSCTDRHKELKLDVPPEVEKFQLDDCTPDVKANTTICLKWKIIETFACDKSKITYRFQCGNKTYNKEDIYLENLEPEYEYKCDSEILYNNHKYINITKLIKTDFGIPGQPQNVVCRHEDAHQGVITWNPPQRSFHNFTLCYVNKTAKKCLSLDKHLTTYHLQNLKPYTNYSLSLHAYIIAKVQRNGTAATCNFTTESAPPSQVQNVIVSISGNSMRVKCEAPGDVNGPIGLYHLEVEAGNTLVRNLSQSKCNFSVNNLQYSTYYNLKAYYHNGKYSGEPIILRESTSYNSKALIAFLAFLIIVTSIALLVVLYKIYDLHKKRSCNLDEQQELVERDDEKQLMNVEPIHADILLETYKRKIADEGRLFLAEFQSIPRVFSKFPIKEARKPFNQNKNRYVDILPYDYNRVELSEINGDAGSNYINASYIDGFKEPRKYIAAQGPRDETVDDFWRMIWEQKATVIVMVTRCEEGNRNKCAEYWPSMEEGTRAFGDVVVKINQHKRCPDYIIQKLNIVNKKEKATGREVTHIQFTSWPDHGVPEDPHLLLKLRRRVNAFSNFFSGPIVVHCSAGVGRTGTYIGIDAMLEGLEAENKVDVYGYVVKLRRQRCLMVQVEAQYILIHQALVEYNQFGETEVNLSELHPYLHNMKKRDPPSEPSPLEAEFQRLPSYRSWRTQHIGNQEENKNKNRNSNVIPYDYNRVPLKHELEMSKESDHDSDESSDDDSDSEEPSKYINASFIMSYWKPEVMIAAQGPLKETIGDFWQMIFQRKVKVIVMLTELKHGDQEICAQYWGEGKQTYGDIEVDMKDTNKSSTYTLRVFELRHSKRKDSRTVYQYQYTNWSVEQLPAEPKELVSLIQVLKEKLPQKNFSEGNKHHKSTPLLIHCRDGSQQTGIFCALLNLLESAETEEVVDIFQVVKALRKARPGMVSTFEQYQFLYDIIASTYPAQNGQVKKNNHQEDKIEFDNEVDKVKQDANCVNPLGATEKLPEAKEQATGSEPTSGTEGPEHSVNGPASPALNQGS

Kd [1]: 2.44 nM
Kd [2]: 1.67 nM
B1: humanised antibody VHE-N73D/humV1 (antibody, V domains shown)
VH: EVQLVESGAEVKKPGASVKVSCKASGYTFTNYIIHWVKQEPGQGLEWIGYFNPYNHGTKYNEKFKGRATLTADKSISTAYMELSSLRSEDTAVYYCARSGPYAWFDTWGQGTTVTVSS
VL: DILLTQSPATLSLSPGERATLSCRASQNIGTSIQWYQQKPGQAPRLLIRSSSESISGIPSRFSGSGSGTDFTLTISSLEPEDFAVYYCQQSNTWPFTFGQGTKLEIK
notes: Constant parts are human gamma-1 and human kappa; expressed in Sp2/0 cells; also called VHEN73D/VL1; VHEN73D/VLh

Reference: patent EP1664122B1 (Novartis AG, dated 2010)
